Laboratory results published in publication PMC9992173, “Mapping of the extracellular RBP4 ligand binding domain on the RBPR2 receptor for Vitamin A transport” (Frontiers in Cell and Developmental Biology, 2023).

Key:
[1] = target: RBP4 (UniProt P02753); conditions: cited from earlier work
[2] = target: Recombinant mouse RBP4 with 6XHis Tag (mouse) (UniProt Q00724); assay: SPR; mouse RBP4 amine-coupled to a CM5 chip (target 1,200 RU), Biacore S200; peptides as analytes, 0.8-26.6 uM; running buffer PBST (0.05% Tween20); 25 C; contact 120 s, dissociation 300 s; Kd from the site-specific binding fit Y=(Bmax*X)/(Kd+X)

Row | Substance | Kd [1] [µM] | Kd [2] [µM]
1 | STRA6 (from UniProt Q9BX79) | 22.4 | 
2 | mouse RBPR2-L296S mutant peptide (from UniProt Q9DBN1 280-321) |  | 21.3
3 | mouse RBPR2-S294A mutant peptide (from UniProt Q9DBN1 280-321) |  | 89.3
4 | mouse RBPR2-Y295P mutant peptide (from UniProt Q9DBN1 280-321) |  | 34.9
